Laboratory results reported in patent US20180044415A1 (AbbVie / Abbott, published 2018).
Substitutions are numbered along the chain they refer to.

T1: human DLL3 (immobilized human DLL3 or h293-hDLL3 cells) (human, UniProt Q9NYJ7 27-492, limits assumed)
T1 construct: the sentence says 'immobilized human DLL3 or h293-hDLL3 cells'
T1 sequence: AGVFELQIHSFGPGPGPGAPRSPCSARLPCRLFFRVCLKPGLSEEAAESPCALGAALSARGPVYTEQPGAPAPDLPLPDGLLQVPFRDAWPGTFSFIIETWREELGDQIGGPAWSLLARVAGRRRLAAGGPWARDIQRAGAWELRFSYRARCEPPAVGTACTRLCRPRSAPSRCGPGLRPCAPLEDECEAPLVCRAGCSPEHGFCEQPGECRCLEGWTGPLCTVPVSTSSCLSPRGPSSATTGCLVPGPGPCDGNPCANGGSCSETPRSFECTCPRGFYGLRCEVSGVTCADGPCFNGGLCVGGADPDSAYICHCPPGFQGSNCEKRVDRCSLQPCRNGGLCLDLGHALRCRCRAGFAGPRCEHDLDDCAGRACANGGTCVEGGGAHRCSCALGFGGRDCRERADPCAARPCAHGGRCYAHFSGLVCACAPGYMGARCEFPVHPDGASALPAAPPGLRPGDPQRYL

B1: SC16.143 (antibody, V domains shown)
VH: QVQLQQSGPELVKPGASVRISCKASGYTFTSYYIHWVKQRPGQGLEWIGWIYPGNGNTKYNEKFKGKATLTADKSSSTAYMQISSLTSEDSAVYFCARERWLLLWFAYWGQGTLVTVSA
VL: DVLMTQTPLSLPVSLGDQASISCRSSQSIVHSNGNTYLEWYLQKPGQSPKLLIYKVSNRFSGVPDRFSGSGSGTDFTLKISRVEAEDLGVYYCFQGSHVPLTFGAGTKLELK
notes: murine mAb; variable regions only
B2: SC16.144 (antibody, V domains shown)
VH: QIQLVQSGPELKKPGETVKISCKASGYTFTNYGMNWVKQAPGKGLKWVGWINTYTGEPTYADDFKGRFAFSLETSASTAYLQIDNLKNEDTATYFCARVGDYVGFDYWGQGTTLTVSS
VL: SIVMTQTPKFLLVSAGDRVTITCKASQSVSNDVGWYQQKPGQSPKLLIYYASNRYNGVPDRFTGSGYGTDFTFTISTVQAEDLAVYFCQQDYSSPWTFGGGTKLEIK
notes: as for B1
B3: SC16.147 (antibody, V domains shown)
VH: QIQLVQSGPELTKPGETVKISCKASGYTFTDYSLHWVKQALGKGLKWMGWINTETGEPAYADDFKGRFAFSLETSASTAYLQINDLKNEDTTTYFCGIYDGYAMDYWGQGTSVTVSS
VL: DIQMTQTASSLSASLGDRVTISCRASQDINNYLNWYQQKPDGTVKLLIYYTSRLHSGVPSRFSGSGSGTDYSLTISILEQEDIATYFCQQGDTLPWTFGGGTKLEIK
notes: as for B1
B4: SC16.148 (antibody, V domains shown)
VH: QIQLVQSGPELKKPGETVKISCKASGYTLTNYGMNWVKQAPGKGLKWMGWINTYTGEPTYADDFKGRFAFSLETSARIVYLQINNLKNEDTATYFCAKYEAHEGFVYWGQGTLVTVSA
VL: QIVLTQSPAIMSASPGEKVTMTCSASSSVSYMYWYQQKPGSSPRLLIYDTSNLASGVPVRFSGSGSGTSYSLTISRMEAEDTATYYCQEWSNNPLTFGDGTKLELK
notes: as for B1
B5: SC16.126 (antibody, V domains shown)
VH: QVQMKESGPGLVAPSQSLSITCTVSGSSLTNYGVHWVRQPPGKGLEWLGVIWAGGSTNYNSALMSRLSISKDNSKSQVFLKMNSLQTDDTAMYYCARDWEGWFAYWGQGTLVTVSA
VL: DIQMNQSPSSLSASLGDTITITCHASQNINVWLSWYQQKPGNIPKLLIYKASNLHTGVPSRFSGSGSGTGFTLTISSLQPEDIATYYCQQGQSYPFTFGSGTKLEIK
notes: as for B1
B6: SC16.149 (antibody, V domains shown)
VH: B5 VH with M4L, T23A, S27F, N31S, Y32F, N60Y, K71I
VL: B5 VL with N53H, F62L, K103T
notes: as for B1
B7: SC16.3 (antibody, V domains shown)
VH: QVTLKESGPGILQPSQTLSLTCSFSGFSLSTSGMGVGWIRQPSGKGLEWLAHIWWDDVKRYNPALKSRLTISKDTSSSQVFLKIASVDTADTATYYCARIADYGGDYYAMDYWGQGTSVTVSS
VL: QIVLTQSPAIMSVSLGERVTMTCTASSSVSSSYLHWYQQKPGSSPKLWIYSTSNLASGVPARFSGSGSGTSYFFTISSMEAEDAATYYCHQYHRSPFTFGAGTKLKIR
notes: as for B1
B8: SC16.4 (antibody, V domains shown)
VH: B3 VH with T12K, L34M, L41P, A59G, D85N, T92A, G97A, I98R
VL: B3 VL with A8T, N30S, I77N, Q80L, T93M
notes: as for B1
B9: SC16.5 (antibody, V domains shown)
VH: QVTLKESGPGILQPSQTLSLTCSFSGFSLSTSGMGVGWIRQPSGEGLEWLADIWWDDNKYYNPSLKSRLTISKDTSSNQVFLKITSVDTADTATYYCARRVNYVYDPYYAMDYWGQGTSVTVSS
VL: QIVLTQSPAIMSASPGEKVTMTCSASSSVSYMHWYQQKSGTSPKRWIYDTSKLASGVPARFSGSGSGTSYSLTISSMEAEDAATYYCQQWTRNPLTFGAGTKLELK
notes: as for B1
B10: SC16.25 (antibody, V domains shown)
VH: B9 VH with A51T, K83N, V104Y
VL: B9 VL with T50S, T91S, R92S
notes: as for B1
B11: SC16.7 (antibody, V domains shown)
VH: EVQLQQSGPELVKPGASVKISCKASGYSFTGYKMHWVKQSHVKSLEWIGRINPYNGATSYNQNFKDKATLTVDKSSSTAYMDLHSLTSEDSAVYFCARGDYRYDWFAYWGQGTLVTVSA
VL: NIMMTQSPSSLAVSAGEKVTMSCKSSQSVLYSSNQKNYLAWYQQKPGQSPKLLIYWASTRESGVPDRFTGSGSGTDFTLTISTVQVEDLAVYYCHQYLSSWTFGGGTKLEIK
notes: as for B1
B12: SC16.8 (antibody, V domains shown)
VH: QAQLQQSGAELVRPGTSVKVSCKASGYAFTNYLIEWVKQRPGQGLEWIGVINPGTGGTNYNENFKGKATLTADKSSSTAYMQLSSLTSDDSAVYFCARSPYDYHEGAMDYWGQGTSVTVSS
VL: EIQMTQSPSSMSASLGDRITITCQATQDIVKNLNWYQQKPGKPPSFLIYYAIELAEGVPSRFSGSGSGSDYSLTISNLESEDFADYYCLQFYEFPFTFGAGTKLELK
notes: as for B1
B13: SC16.10 (antibody, V domains shown)
VH: QVTLKESGPGILQSSQTLSLTCSFSGFSLSTSGMGVGWIRQPSGKGLEWLAHIWWDDVKRYNPVLKSRLTISKDTSSSQVFLKIASVDTADTATYYCARLVDDLYYFDYWGQGTTLTVSS
VL: B7 VL with V13A, A61T, F73S, F74L, A101S, K106E, R108K
notes: as for B1
B14: SC16.11 (antibody, V domains shown)
VH: QIQLVQSGPELKKPGETVKISCKASGYTFTDYSMHWVKQAPGKGLKWMGWINTETVEPTYADDFMGRFAFSLETSASTAFLQINNLENEDTATYFCARFGSYAMDYWGQGTSVTVSS
VL: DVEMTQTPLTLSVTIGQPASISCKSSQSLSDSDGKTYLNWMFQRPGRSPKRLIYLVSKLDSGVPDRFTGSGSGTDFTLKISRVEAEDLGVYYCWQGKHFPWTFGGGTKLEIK
notes: as for B1
B15: SC16.15 (antibody, V domains shown)
VH: QVQLQQSGAELAKPGASVKMSCKASGYTFTRYWIHWIKQRPGQGLEWIGYINPTTVYTEFNQNFKDKATLTADKSSTTASMQLSSLTSEDSAVYYCARGGSNFFDYWGQGTTLTVSS
VL: DIQMTQSPASLAASVGETVAITCRASENIYYNLAWYQQKQGKSPQLLIYTANSLEDGVPSRFSGSGSGTQYSLKINSMQPEDSATYFCKQAYDVPPTFGGGTKLEIK
notes: as for B1
B16: SC16.18 (antibody, V domains shown)
VH: EVKLEESGGGLVQPGESMKLSCAASGFTFSDAWMDWVRQSPEKGLEWVAEIRNKANNHATYYAESVKGKFTISRDDSKSRVYLQMNNLRAADTGIYYCTAYSNFAYWGQGTLVTVST
VL: DIQMTQTTSSLSASLGDRVTISCRASQNIINYLNWYQQKPDGTVKLLIYYTSRLHSGVPSRFSGSGSGTDYSLTISNLEPEDIATYYCQQYSERPYTFGGGTKLEIK
notes: as for B1
B17: SC16.41 (antibody, V domains shown)
VH: B16 VH with P14F, E16G, A63P, K69R, A91E, A100G, N103S, T117A
VL: B16 VL with N28D, I29V, G68R
notes: as for B1
B18: SC16.19 (antibody, V domains shown)
VH: EVQLQQSGAELVRPGASVKLSCTASGFNIKDSLLHWVKQRPEKGLEWIGWIDPEDGETKYAPNFQDKATITTDSSSNTAYLQLISLTSVDTAIYYCAYGNYVRHFDYWGQGTTLTVSS
VL: DIQMTQSPSSLSASLGGKVTFTCKASQDIHKYVAWYQHKPGKGPRLLIHYTSTLQPGISSRFSGSGSGRDYSFSISNLEPEDIATYYCLQYNNLYTFGGGTKLEIK
notes: as for B1
B19: SC16.20 (antibody, V domains shown)
VH: QVQLQQSGTELVRPGTSVRVSCKASGYAFGNHLIEWVKQRPGQGLEWIGVINPGTGGTHYNEKFKDKARLTADKSSNTAYMHLNSLTSDDSAVYFCARSPYDYHEGAMDYWGQGTSVTVSS
VL: B12 VL with I52T, S76R, Y86H
notes: as for B1
B20: SC16.21 (antibody, V domains shown)
VH: QVQLQQSGPELVKPGASVKISCKASGYAFSSSWMNWVKQRPGKGLEWIGRIYPGDGDTNYNGKFKGKATLTADKSSSTAYMQLSSLTSEDSAVYFCAMGIYNYDGSRYYSMDYWGQGTSVTVSS
VL: DIVMTQSPSSLAMSVGQKVTMSCKSSQSLLNSSNQKNYLAWYQQEPGQSPKLLVSFASTRESGVPDRFTGSGSGTDFTLTISGVQAEDLAVYYCQQHYSIPLTFGAGTKLELK
notes: as for B1
B21: SC16.22 (antibody, V domains shown)
VH: QVQLQQPGAELVKPGASVKLSCKASGYTFTTYWMHWVKQRPGQGLEWIGEIDPSDSYTYYNQKFKGKATLTVDKSSSTAYMQLSSLTSEDSAVYYCARGDYGNPYAMDYWGQGSSVTVSS
VL: B3 VL with A8T, N30K, L46P, L54V, I77N, D92Y, W96F, G100S
notes: as for B1
B22: SC16.29 (antibody, V domains shown)
VH: QVQLQQSGAELARPGASVKLSCKASGYTFTDQYINWVKQRTGQGLEWIGEIYPGRGNTYYNEKFKGKATLTADKSSSTAYMQLSSLTSEDSAVYFCAREDGGYDDAWFAYWGQGTLVTVSA
VL: QIVLTQSPAIMSASPGEKVTITCSASSSVSYMHWFQQKPGTSPKLWIYTTSNLASGVPARFSGSGSGTSYSLTVSRMEAEDAATYYCQQRSLYPYTFGGGTKVEIK
notes: as for B1

Molecular target: T1, human DLL3 (immobilized human DLL3 or …)
Assay: hybridoma screening on immobilized human DLL3 or on h293-hDLL3 cells

Binder | binding result
B1 | binds
B2 | binds
B3 | binds
B4 | binds
B5 | binds
B6 | binds
B7 | binds
B8 | binds
B9 | binds
B10 | binds
B11 | binds
B12 | binds
B13 | binds
B14 | binds
B15 | binds
B16 | binds
B17 | binds
B18 | binds
B19 | binds
B20 | binds
B21 | binds
B22 | binds
